The values below come from patent US20230381229A1.

Experiment [1] concerns the target PD-1 expressed on cells (human). Nature of the experiment: flow cytometry, cells expressing PD-1.
The target in experiment [2] is CD80 expressed on cells (Homo sapiens). The experiment in a line: flow cytometry, cells expressing CD80. In general terms: Flow cytometry measures light scatter and fluorescence of single cells or particles in a stream.
The target in the next experiment is PD-1-Fc (Homo sapiens). Nature of the experiment: ForteBio, PD-1-Fc. (In BLI a coated tip is dipped into the sample, and binding shifts an interference pattern.)
For experiment [3], the target named is PD-1 expressed on cells (human). The experiment in a line: flow cytometry, Jurkat/PD-1 cells.
Target sequence in this assay (chain, as listed by the source): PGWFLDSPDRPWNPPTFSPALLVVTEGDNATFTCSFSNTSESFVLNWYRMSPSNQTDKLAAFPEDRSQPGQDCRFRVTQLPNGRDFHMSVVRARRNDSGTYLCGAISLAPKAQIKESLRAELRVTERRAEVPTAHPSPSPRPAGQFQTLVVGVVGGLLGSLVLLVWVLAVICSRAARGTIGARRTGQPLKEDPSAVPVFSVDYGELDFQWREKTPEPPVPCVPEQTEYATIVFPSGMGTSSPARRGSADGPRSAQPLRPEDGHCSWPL
The target of experiment [4] is CD112R (Homo sapiens (Human)) (UniProt Q6DKI7).
Experiment [5] addresses human TIGIT (human).
For experiment [6], the target named is T1, human TIGIT, full-length, expressed on transfected HEK293 cells (human).
T1 sequence: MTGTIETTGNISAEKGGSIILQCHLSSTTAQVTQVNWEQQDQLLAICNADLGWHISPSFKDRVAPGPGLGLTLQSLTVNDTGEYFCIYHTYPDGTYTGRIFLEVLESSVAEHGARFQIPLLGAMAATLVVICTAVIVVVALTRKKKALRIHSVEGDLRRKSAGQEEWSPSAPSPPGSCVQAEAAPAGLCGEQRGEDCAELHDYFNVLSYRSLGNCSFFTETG
Nature of the experiment: flow cytometry, HEK293 transfectants, 100 nM.

In experiment [7] the target is T2, human CD96, full-length, expressed on transfected HEK293 cells (human) (UniProt P40200).
T2 sequence: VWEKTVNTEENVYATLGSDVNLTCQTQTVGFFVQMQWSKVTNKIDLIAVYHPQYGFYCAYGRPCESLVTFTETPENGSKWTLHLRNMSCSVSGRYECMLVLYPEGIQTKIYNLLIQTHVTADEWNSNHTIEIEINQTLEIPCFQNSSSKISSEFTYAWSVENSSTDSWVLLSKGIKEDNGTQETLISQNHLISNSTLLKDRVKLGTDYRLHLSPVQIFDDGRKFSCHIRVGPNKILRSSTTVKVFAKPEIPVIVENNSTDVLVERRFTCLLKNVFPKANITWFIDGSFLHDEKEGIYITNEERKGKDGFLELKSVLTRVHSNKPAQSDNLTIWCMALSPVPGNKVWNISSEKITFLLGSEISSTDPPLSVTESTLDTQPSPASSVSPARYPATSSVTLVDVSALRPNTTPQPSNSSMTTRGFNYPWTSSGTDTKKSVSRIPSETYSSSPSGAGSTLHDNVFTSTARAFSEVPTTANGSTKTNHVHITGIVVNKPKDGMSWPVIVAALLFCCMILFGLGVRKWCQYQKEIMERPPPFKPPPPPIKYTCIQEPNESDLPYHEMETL
Nature of the experiment: flow cytometry, HEK293 transfectants, 100 nM.

Experiment [8] deals with CD112R (Homo sapiens (Human)) (UniProt Q6DKI7). Nature of the experiment: flow cytometry, transfected HEK293 cells, 100 nM.
The target in experiment [9] is human TIGIT (human). The experiment in a line: flow cytometry, transfected HEK293 cells, 100 nM.
A further experiment has as its target T3, human CD226 (human).
T3 sequence: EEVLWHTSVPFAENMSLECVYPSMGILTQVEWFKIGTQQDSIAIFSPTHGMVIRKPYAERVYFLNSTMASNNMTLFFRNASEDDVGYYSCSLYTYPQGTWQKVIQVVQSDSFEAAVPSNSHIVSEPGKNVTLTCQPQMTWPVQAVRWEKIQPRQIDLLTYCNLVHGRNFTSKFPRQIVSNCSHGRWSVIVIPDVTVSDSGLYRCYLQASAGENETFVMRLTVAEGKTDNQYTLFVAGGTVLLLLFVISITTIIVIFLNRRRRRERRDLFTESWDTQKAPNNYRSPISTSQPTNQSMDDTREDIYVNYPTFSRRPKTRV
The experiment in a line: flow cytometry, transfected HEK293 cells, 100 nM.

In another experiment the target is T4, human CD96 (human) (UniProt P40200).
T4 sequence: T2 sequence
Nature of the experiment: flow cytometry, transfected HEK293 cells, 100 nM.

Sequence of CD155 IgV Fc (P15151 21-142): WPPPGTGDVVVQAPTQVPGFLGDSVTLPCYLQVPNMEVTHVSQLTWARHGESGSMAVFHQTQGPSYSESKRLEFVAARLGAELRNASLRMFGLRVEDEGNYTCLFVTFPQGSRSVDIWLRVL
Sequence of CD112R (Homo sapiens (Human)) (Q6DKI7 whole entry): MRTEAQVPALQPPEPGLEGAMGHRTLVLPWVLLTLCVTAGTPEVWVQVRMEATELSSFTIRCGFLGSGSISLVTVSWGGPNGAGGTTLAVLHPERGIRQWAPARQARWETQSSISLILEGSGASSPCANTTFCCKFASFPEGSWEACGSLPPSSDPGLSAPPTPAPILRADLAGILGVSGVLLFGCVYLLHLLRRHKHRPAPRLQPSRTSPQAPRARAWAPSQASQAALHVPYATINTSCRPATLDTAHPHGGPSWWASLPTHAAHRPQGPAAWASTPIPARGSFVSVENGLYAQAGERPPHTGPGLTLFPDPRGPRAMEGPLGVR
Sequence of CD112 ECD-Fc (Fc fusion) (chain): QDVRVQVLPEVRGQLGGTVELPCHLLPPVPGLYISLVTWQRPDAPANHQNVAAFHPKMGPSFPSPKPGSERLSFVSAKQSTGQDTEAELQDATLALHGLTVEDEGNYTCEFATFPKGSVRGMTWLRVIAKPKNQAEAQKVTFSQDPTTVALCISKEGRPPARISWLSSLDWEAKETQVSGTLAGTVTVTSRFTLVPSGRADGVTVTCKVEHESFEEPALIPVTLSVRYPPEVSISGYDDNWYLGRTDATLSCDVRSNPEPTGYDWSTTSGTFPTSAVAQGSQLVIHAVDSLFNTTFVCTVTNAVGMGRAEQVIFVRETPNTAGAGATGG
Sequence of PD-1-Fc (Homo sapiens) (chain, as listed by the source limits assumed): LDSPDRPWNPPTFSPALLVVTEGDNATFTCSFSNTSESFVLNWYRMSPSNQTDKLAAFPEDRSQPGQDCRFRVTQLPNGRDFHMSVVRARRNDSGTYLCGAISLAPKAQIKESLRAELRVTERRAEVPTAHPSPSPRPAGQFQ
Sequence of CTLA4-Fc (Fc fusion) (chain): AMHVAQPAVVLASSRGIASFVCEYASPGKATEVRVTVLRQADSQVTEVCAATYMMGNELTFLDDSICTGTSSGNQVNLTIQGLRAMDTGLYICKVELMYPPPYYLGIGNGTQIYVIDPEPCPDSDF
Sequence of human PD-1 (human) (chain, as listed by the source limits assumed): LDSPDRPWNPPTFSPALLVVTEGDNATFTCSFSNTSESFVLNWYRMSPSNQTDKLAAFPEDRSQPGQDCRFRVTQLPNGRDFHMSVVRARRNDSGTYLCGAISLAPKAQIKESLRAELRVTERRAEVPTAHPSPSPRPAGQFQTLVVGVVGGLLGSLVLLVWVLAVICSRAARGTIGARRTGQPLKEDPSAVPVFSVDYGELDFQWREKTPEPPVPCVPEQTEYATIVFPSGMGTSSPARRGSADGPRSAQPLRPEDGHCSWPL

In the case of “variant PD-L1 ECD-Fc L35P, I36S, M97L, K111E (Fc fusion)”, in experiment [1], the Fold Change Compared to WT PD-L1 came to 0.1 and the MFI at 20 nM came out at 190. The same substance displayed an MFI at 20 nM in experiment [2] of 155.

In the case of “variant PD-L2 IgV-Fc H15Q, R76G, I85F (SEQ ID NO 685) (Fc fusion)”, the Fortebio binding to PD-1-Fc Response Units (Response Units) with PD-1-Fc (Homo sapiens) is -0.006. In experiment [3], this substance gave a Fold increase over wildtype PD-L2 IgV-Fc of 0.19 and an MFI at 50 nM of 1890.

Regarding “variant PD-L1 ECD-Fc M18V, M97L, F193S, R195G, E200K, H202Q (Fc fusion)”, in [1], the Fold Change Compared to WT PD-L1 was 0 and the MFI at 20 nM came out at 69.

As to “variant PD-L1 ECD-Fc V93E, V129D (Fc fusion)”, the Fold Change Compared to WT PD-L1 in experiment [1] was found to be 0.4. The substance further came in with an MFI at 20 nM in experiment [2] of 150.

As to Fc Control, the RLU (IL-2-luciferase reporter) (with human PD-1 (human); in experiment [4]; with human TIGIT (human) [5]) was 624 RLU each time. Besides, the MFI at 20 nM in [1] turned out to be 59; in experiment [2], 132.

In experiment [1], “variant PD-L1 ECD-Fc G15A, I36T, V129D (Fc fusion)” came in with a Fold Change Compared to WT PD-L1 of 0 and an MFI at 20 nM of 114. Moreover, the MFI at 20 nM in experiment [2] is 136.

In experiment [1], “variant PD-L1 ECD-Fc G15A, I36T, V129D, R195G (Fc fusion)” showed a Fold Change Compared to WT PD-L1 of 0 and an MFI at 20 nM of 125.

“variant PD-L1 ECD-Fc M18V, I98L, L124S, P198T, L206F (Fc fusion)” gave a Fold Change Compared to WT PD-L1 in experiment [1] of 0.7. In addition, in experiment [2], the MFI at 20 nM is 143.

As to CD112 ECD-Fc (Fc fusion), the MFI at 100 nM in experiment [6] worked out at 29200 MFI; in experiment [7], 1100 MFI.

In [1], “variant PD-L1 ECD-Fc V129D, T150A (Fc fusion)” had a Fold Change Compared to WT PD-L1 of 0.6. In [2], this substance yielded an MFI at 20 nM of 142.

“CD155 IgV Fc (from UniProt P15151) (Fc fusion)” gave a Fold ↑ to WT ECD in experiment [8] of 1.65. The MFI at 100 nM in [8] stood at 2940; in the experiment with human TIGIT (human) [9] it was 4690; with human CD226 (human), 4690; with human CD96 (human), 3270.

In [1], “variant PD-L1 ECD-Fc I36T, I46V, D55G, M97L, K106E, K144E, T185A, R195G (Fc fusion)” had a Fold Change Compared to WT PD-L1 of 0 and an MFI at 20 nM of 69. This substance also yielded an MFI at 20 nM in experiment [2] of 190.

As for “variant PD-L1 ECD-Fc I36T, G52R, M97L, V112A, K144E, V175A, P198T (Fc fusion)”, in experiment [1], the Fold Change Compared to WT PD-L1 was determined as 0 and the MFI at 20 nM amounted to 81. Also, in experiment [2], the MFI at 20 nM turned out to be 149.

In experiment [1], “variant PD-L1 ECD-Fc I36T, M97L, A103V, Q155H (Fc fusion)” gave a Fold Change Compared to WT PD-L1 of 0 and an MFI at 20 nM of 120. The MFI at 20 nM in [2] came out at 128.

Consider “variant PD-L2 IgV-Fc H15Q, R76G, I85F (SEQ ID NO 680) (Fc fusion)”, for which, in the experiment with PD-1-Fc (Homo sapiens), the Fortebio binding to PD-1-Fc Response Units (Response Units) is -0.038. In addition, in experiment [3], the Fold increase over wildtype PD-L2 IgV-Fc came out at 0.3 and the MFI at 50 nM was determined as 2940.

With “variant PD-L1 ECD-Fc V129D, P198T (Fc fusion)”, in [1], the Fold Change Compared to WT PD-L1 came to 1. The MFI at 20 nM in experiment [2] came to 152.

Turning to “variant PD-L1 ECD-Fc G15A, V129D (Fc fusion)”, the Fold Change Compared to WT PD-L1 in experiment [1] is 0.7. In experiment [2], this substance showed an MFI at 20 nM of 128.

Consider “variant PD-L1 ECD-Fc V129D, H202Q (Fc fusion)”, for which the Fold Change Compared to WT PD-L1 in experiment [1] was found to be 0.6; in experiment [2] it was 1.6. In experiment [2], this substance yielded an MFI at 20 nM of 219.

In turn, “variant PD-L1 ECD-Fc G15A, I36T, M97L, K111E, H202Q (Fc fusion)” displayed an MFI at 20 nM in experiment [1] of 112.

“variant PD-L1 ECD-Fc K28I, S99G (Fc fusion)” displayed an MFI at 20 nM in experiment [1] of 830.

For CTLA4-Fc (Fc fusion), the MFI at 20 nM turned out to be 59 in [1] and 200000 in experiment [2].
